Experimental data taken from US20250340635A1 (HEFEI TG IMMUNOPHARMA, published 2025).

T1: human MICA-His fusion protein (human, UniProt Q29983 24-307)
T1 construct: extracellular domain; also called MICA extracellular region His tag fusion protein; not shown: His tag
T1 sequence (looked up): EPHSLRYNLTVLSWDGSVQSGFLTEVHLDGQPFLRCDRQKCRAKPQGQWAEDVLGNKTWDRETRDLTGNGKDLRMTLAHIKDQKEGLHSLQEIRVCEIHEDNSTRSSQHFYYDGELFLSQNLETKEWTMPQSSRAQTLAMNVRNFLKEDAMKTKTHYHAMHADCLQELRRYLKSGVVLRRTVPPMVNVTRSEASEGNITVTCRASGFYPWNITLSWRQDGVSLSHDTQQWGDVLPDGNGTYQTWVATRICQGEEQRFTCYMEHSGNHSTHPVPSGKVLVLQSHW


Experiments:
[1] = target: T2, cynomolgus monkey-His fusion protein (cynomolgus monkey, UniProt Q95JB9 22-257); test: not described at this place ("Validation has shown"); Jeru4602 was tested by ELISA on coated cynomolgus NKp46-His in Example 7
T2 construct: extracellular domain; also called cynomolgus monkey NKp46; monkey NKp46; not shown: His tag
T2 sequence (Q95JB9 22-257): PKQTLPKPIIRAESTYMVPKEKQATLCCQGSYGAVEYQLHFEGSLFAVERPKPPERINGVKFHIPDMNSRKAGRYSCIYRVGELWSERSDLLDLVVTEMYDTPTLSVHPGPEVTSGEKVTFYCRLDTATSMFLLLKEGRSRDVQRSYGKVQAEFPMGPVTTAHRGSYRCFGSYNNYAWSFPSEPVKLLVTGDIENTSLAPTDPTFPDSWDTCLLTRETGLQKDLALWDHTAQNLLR
Description: The binding characteristics of the humanized 10D10 antibody prepared in Example 6 was detected using the ELISA assay. The NKp46 extracellular region His tag fusion protein (NKp46-His) was coated into a 96-well plate. The signal intensity after antibody addition was used to determine the binding characteristics of the antibody to NKp46. The specific steps were as follows:
The human NKp46-His fusion protein and cynomolgus monkey-His fusion protein (for specific sources, see Example 2) were diluted to 1 μg/mL with PBS buffer, added to a 96-well plate at 100 μL/well and left overnight at 4° C. The PBS buffer solution was removed from the 96-well plate. The plate was washed 6 times with PBST (pH 7.2, PBS containing 0.1% Tween 20) buffer solution. PBS/10% BSA was added at 200 μL/well and incubated at 37° C. for 2 hours for blocking. The blocking solution was removed. The plate was washed 6 times with PBST. […] The absorbance at […] was read with a microplate reader.

[2] = target: T1, human MICA-His fusion protein; test: ELISA, MICA-His coated, anti-human HRP
[3] = target: T3, human NKp46-His fusion protein (human, UniProt O76036 22-258); test: ELISA, NKp46-His coated, anti-human HRP
T3 construct: Bought from Acro; also called NKp46 extracellular region His tag fusion protein; not shown: His tag
T3 sequence (O76036 22-258 Q82K): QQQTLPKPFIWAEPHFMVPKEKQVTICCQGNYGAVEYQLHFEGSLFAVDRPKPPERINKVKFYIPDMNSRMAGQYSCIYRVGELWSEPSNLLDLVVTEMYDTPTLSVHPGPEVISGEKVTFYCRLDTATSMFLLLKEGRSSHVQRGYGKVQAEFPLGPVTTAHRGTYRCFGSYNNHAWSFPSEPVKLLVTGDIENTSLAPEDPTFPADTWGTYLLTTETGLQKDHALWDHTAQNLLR

Row | binding result [1] | binding result [2] | binding result [3] | Binder
1 | no binding | – | – | Jeru4602 (antibody, human IgG1, kappa, L234A L235A, V domains shown, also called control antibody 2; NKp46 antibody disclosed in U.S. Ser. No. 10/716,864) VH: QVTLKESGPGILQPSQTLSLTCSFSGFSLSTYGIGVGWNRQPSGKGLEWLAHIWWNDNEYYNIDLKSRLTISKDTSNNQVFLKIASVDTADTATYYCVRGNYRYARGYVMDYWGQGTSVTVSS VL: DIVLTQSPASLAVSLGQRATISCRASESVEYYGTSLMQWYQQKPGQPPKLLIYAASNVESGVPARFSGSGSGTDFSLNIHPVEEDDFAMYFCQQNRKVPWTFGGGTKLEIKR
2 | – | binds | binds | murine 10D10×MICA bispecific antibody (bispecific antibody, human IgG1, kappa, L234A L235A, First chain is the murine 10D10 ScFv-Fc (knob); the heavy and light chains are those of the MICA antibody (hole); knob-into-hole heterodimer; also called NKp46 (murine 10D10)×MICA bispecific antibody) not shown heavy: QVQLQESGPGLVKPSETLSLTCTVSGFSLTTYGVHWIRQPPGKGLEWIGMIWTDATTDYNAAFISRVTISVDTSKNQFSLKLSSVTAADTAVYYCARKGHGYYYAMDYWGQGTLVTVSSASTKGPSVFPLAPSSKSTSGGTAALGCLVKDYFPEPVTVSWNSGALTSGVHTFPAVLQSSGLYSLSSVVTVPSSSLGTQTYICNVNHKPSNTKVDKKVEPKSCDKTHTCPPCPAPEAAGGPSVFLFPPKPKDTLMISRTPEVTCVVVDVSHEDPEVKFNWYVDGVEVHNAKTKPREEQYNSTYRVVSVLTVLHQDWLNGKEYKCKVSNKALPAPIEKTISKAKGQPREPQVCTLPPSREEMTKNQVSLSCAVKGFYPSDIAVEWESNGQPENNYKTTPPVLDSDGSFFLVSKLTVDKSRWQQGNVFSCSVMHEALHNHYTQKSLSLSPGK light: EIVLTQSPGTLSLSPGERATLSCTASSSVSSSYLHWYQQKPGQAPRLLIYSTSNLASGIPDRFSGSGSGTDFTLTISRLEPEDFAVYYCHQYHRSPFTFGQGTKLEIKRTVAAPSVFIFPPSDEQLKSGTASVVCLLNNFYPREAKVQWKVDNALQSGNSQESVTEQDSKDSTYSLSSTLTLSKADYEKHKVYACEVTHQGLSSPVTKSFNRGEC
3 | – | binds | binds | humanized 10D10×MICA bispecific antibody (bispecific antibody, human IgG1, kappa, L234A L235A, First chain is the humanized h10D10 ScFv-Fc (knob); the heavy and light chains are those of the MICA antibody (hole); also called h10D10×MICA; NKp46 (humanized 10D10)×MICA bispecific antibody) not shown heavy: QVQLQESGPGLVKPSETLSLTCTVSGFSLTTYGVHWIRQPPGKGLEWIGMIWTDATTDYNAAFISRVTISVDTSKNQFSLKLSSVTAADTAVYYCARKGHGYYYAMDYWGQGTLVTVSSASTKGPSVFPLAPSSKSTSGGTAALGCLVKDYFPEPVTVSWNSGALTSGVHTFPAVLQSSGLYSLSSVVTVPSSSLGTQTYICNVNHKPSNTKVDKKVEPKSCDKTHTCPPCPAPEAAGGPSVFLFPPKPKDTLMISRTPEVTCVVVDVSHEDPEVKFNWYVDGVEVHNAKTKPREEQYNSTYRVVSVLTVLHQDWLNGKEYKCKVSNKALPAPIEKTISKAKGQPREPQVCTLPPSREEMTKNQVSLSCAVKGFYPSDIAVEWESNGQPENNYKTTPPVLDSDGSFFLVSKLTVDKSRWQQGNVFSCSVMHEALHNHYTQKSLSLSPGK light: EIVLTQSPGTLSLSPGERATLSCTASSSVSSSYLHWYQQKPGQAPRLLIYSTSNLASGIPDRFSGSGSGTDFTLTISRLEPEDFAVYYCHQYHRSPFTFGQGTKLEIKRTVAAPSVFIFPPSDEQLKSGTASVVCLLNNFYPREAKVQWKVDNALQSGNSQESVTEQDSKDSTYSLSSTLTLSKADYEKHKVYACEVTHQGLSSPVTKSFNRGEC
